*1 amine or outer side, *2 acyl side, *3 side chain or, on linkers, in order; H or OH if unused. Bridges are numbered along the chain shown (N, C = ends). Primed or numbered codes have the meaning given here. Side-chain parts run from the residue outwards. [ ]: non-standard residue; d: D form. Ygp″ = O-(PEG8-amino)-tyrosine (O-(8x polyethylene glycol-amino)-tyrosine); Yn3″ = O-(PEG9-azido)-tyrosine (O-(9x polyethylene glycol-azido)-tyrosine); Ygp = O-(8x polyethylene glycol-amino)-tyrosine; Yn3 = O-(9x polyethylene glycol-azido)-tyrosine; PABC = O=C(OCc1ccc(N[*:1])cc1)[*:2]; Ygp(3) = O-(PEG8-amino)-tyrosine; Yn3(3) = O-(PEG9-azido)-tyrosine; Cit = NC(=O)NCCC[C@H](N)C(=O)O; hSer = N[C@@H](CCO)C(=O)O; Nle = CCCC[C@H](N)C(=O)O; Dab = NCC[C@H](N)C(=O)O
Tests used:
[1] = target: T1, IL-2 receptor βγ complex on pan T cells (human, UniProt P14784 27-551; P31785 23-369); experiment: cell-based or functional assay
T1 sequence (looked up) 1: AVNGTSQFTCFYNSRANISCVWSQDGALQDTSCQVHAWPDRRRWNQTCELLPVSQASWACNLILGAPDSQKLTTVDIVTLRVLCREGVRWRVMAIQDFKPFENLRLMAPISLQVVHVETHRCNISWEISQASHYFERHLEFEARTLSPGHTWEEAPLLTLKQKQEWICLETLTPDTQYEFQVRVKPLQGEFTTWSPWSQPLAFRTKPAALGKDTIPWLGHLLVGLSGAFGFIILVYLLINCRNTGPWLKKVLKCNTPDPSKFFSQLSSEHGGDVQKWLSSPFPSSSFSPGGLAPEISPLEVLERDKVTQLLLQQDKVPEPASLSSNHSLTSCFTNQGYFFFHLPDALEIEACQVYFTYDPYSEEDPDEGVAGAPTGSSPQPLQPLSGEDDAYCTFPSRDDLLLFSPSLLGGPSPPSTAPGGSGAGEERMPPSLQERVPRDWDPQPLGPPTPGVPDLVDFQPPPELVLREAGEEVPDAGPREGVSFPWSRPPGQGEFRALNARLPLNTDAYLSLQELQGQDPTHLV
T1 sequence (looked up) 2: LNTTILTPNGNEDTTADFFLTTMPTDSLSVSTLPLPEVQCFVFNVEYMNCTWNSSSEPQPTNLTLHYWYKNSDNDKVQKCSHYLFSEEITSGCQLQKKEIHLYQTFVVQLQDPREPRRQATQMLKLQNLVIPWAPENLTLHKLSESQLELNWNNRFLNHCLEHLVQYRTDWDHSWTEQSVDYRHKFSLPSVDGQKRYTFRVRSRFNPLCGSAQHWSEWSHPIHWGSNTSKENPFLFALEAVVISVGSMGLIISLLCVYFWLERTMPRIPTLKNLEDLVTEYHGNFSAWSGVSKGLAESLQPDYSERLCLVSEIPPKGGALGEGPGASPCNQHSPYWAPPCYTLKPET

[2] = target: T2, recombinant human IL-2 receptor beta containing a His-tag and Avi-Tag (R&D Systems #AVI10459) (human, UniProt P14784 27-239); experiment: BLI (Octet), receptor on SAX2 sensor, MMP2-treated IL-2 as analyte
T2 construct: bought protein, held on the Octet SAX2 sensor; also called CD122; IL-2Rβ
T2 sequence (looked up): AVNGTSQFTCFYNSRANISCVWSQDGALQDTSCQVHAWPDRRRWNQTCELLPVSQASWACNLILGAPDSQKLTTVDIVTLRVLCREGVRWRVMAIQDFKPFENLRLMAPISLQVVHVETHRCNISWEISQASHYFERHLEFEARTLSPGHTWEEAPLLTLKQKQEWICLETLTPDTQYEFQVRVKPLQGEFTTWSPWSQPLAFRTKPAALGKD
Method: (§1) Bilayer interferometry (BLI) assays were used to measure the binding constants between activatable IL-2 polypeptides (and activated versions thereof) to IL-2 receptor subunits or receptor complexes. BLI assays were conducted on an Octet® R8 instrument. Assay plates were 96 well, polypropylene, F-bottom (chimney well), black microplates (Greiner Bio-one, Cat. No: 655209). The biosensors were Octet® SAX2 (Sartorius, Cat. No: 18-5136). The assay buffer was 1× Kinetic Buffer (Sartorius, Cat. no: 18-5136) or Phosphate Buffered Saline (PBS) that contained 0.02% (v: v) Tween 20 (Polysorbate 20) and 0.1% (w/v) bovine serum albumin (BSA). The sensor was regenerated between measurements in 10 mM glycine pH 2.7 buffer.
(§2) Sensor attached receptors were either recombinant human IL-2 receptor beta containing a His-tag and Avi-Tag™ (R&D Systems™ #AVI10459) or an Avi-Tag™ Fc with human IL-2R beta and IL-2R gamma attached (Acrobiosystems Cat. no: ACRB-ILG-H82F3-25UG). Receptors were reconstituted from lyophilized powder to 500 μg/ml in PBS. Analytes were diluted in Kinetic buffer to 300 nM, then serially diluted to lower concentrations.

[3] = target: T3, Avi-Tag Fc with human IL-2R beta and IL-2R gamma attached (Acrobiosystems ACRB-ILG-H82F3-25UG) (human, UniProt P14784 27-239; P31785 23-262); experiment: as above
T3 construct: bought heterodimer; also called CD122 CD132; CD122/CD132 complex
T3 sequence (looked up) 1: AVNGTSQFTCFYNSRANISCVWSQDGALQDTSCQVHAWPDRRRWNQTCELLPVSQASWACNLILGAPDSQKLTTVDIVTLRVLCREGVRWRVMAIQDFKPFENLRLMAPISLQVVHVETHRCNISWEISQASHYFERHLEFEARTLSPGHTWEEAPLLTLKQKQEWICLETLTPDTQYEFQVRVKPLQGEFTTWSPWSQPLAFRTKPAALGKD
T3 sequence (looked up) 2: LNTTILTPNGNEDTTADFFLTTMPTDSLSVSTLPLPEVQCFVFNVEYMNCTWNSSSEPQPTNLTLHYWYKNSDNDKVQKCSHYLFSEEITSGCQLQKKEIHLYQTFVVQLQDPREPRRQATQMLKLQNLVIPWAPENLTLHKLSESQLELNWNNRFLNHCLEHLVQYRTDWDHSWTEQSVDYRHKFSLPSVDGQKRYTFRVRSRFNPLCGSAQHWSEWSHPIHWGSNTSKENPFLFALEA
Method: as §1, §2

[4] = target: T3, Avi-Tag Fc with human IL-2R beta and …; experiment: BLI (Octet), receptor on SAX2 sensor, IL-2 as analyte
Method: as §1, §2

[5] = target: T2, recombinant human IL-2 receptor beta …; experiment: BLI (Octet), receptor on SAX2 sensor, IL-2 as analyte; construct CMP-145
Method: as §1, §2

[6] = target: T1, IL-2 receptor βγ complex on pan T cells; experiment: cell-based or functional assay; remark: listed apart in the source

Binder	Average EC50, pSTAT5 assay in pan T cells, MMP2 cleaved molecule [1]	Kd [2]	koff [2]	kon [2]	Kd [3]	koff [3]	kon [3]	koff [4]	Kd [5]	Average EC50, pSTAT5 assay in pan T cells, intact molecule [6]
CMP-145 (ligand, disulfide 58-105; not fully specified (residue 23); also: branched 27x PEG chains on the attached KKPLGLAG peptide, places not given here) APTSSSTKKTQLQLEHLLLDLQKILNGINNYKNPKLTR[Nle]L[hSer][Yn3]KF[Ygp][Nle]PKKATELKHLQCLEEELKPLEEVL[hSer]LAQSKNFHLRPRDLISNINVIVLELKGSETTF[hSer]CEYADETATIVEFLNRWITFSQSIISTLT								0.00117 s⁻¹	1.83 µM	
CMP-130 (ligand) APTSSSTKKTQLQLE[Dab]LLLDLQ[Nle]ILNGINNYKNPKLTR[Nle]L[hSer][Yn3(3)]KF[Ygp(3)][Nle]PKKATELKHLQCLEEELKPLEEVL[hSer]LAQSKNFHLRPRDLISNINVIVLELKGSETTF[hSer]CEYADETATIVEFLNRWITFSQSIISTLT										66.8 nM

Second part, the binder after the results:

Average EC50, pSTAT5 assay in pan T cells, MMP2 cleaved molecule [1]	Kd [2]	koff [2]	kon [2]	Kd [3]	koff [3]	kon [3]	koff [4]	Kd [5]	Average EC50, pSTAT5 assay in pan T cells, intact molecule [6]	Binder
5.31 nM	0.658 µM	0.227 s⁻¹	345000 M⁻¹ s⁻¹	0.00155 µM	0.000923 s⁻¹	594000 M⁻¹ s⁻¹				CMP-167, MMP2 cleaved (ligand, not fully specified; as CMP-167 but cleavable peptide cut by MMP2 (macrocycle opened); cut site not given) APTSSSTKKTQLQLEHLLLDLQKILNGINNYKNPKLTRXLXYKFYXPKKATELKHLQCLEEELKPLEEVLXLAQSKNFHLRPRDLISNINVIVLELKGSETTFXCEYADETATIVEFLNRWITFSQSIISTLT
6.3 nM	1370 µM	1.08 s⁻¹	789 M⁻¹ s⁻¹	0.00227 µM	0.00164 s⁻¹	602000 M⁻¹ s⁻¹				CMP-168, MMP2 cleaved (ligand, disulfide 58-105 (inferred); not fully specified (residues 9, 23); also: cleaved by MMP2, bridge opened, remnants on Lys9 and Glu23 not defined) APTSSSTKKTQLQLEHLLLDLQEILNGINNYKNPKLTR[Nle]L[hSer][Yn3]KF[Ygp][Nle]PKKATELKHLQCLEEELKPLEEVL[hSer]LAQSKNFHLRPRDLISNINVIVLELKGSETTF[hSer]CEYADETATIVEFLNRWITFSQSIISTLT
									56.9 nM	CMP-131 (ligand, not fully specified; ends and bridges not checked) APTSSSTKKTQLQLEK([PABC-Cit-Val-Glu-Ac])LLLDLQ[Nle]ILNGINNYKNPKLTR[Nle]L[hSer][Yn3″]KF[Ygp″][Nle]PKKATELKHLQCLEEELKPLEEVL[hSer]LAQSKNFHLRPRDLISNINVIVLELKGSETTF[hSer]CEYADETATIVEFLNRWITFSQSIISTLT
